What was measured:
[1] = biological target: CsgE W48A (E. coli MC4100); experiment: native gel or EMSA; native PAGE of purified CsgE (monomer peak) incubated at 4°C or 25°C for various times
[2] = biological target: 6x-His-tagged CsgA lacking the 20-residue N-terminal signal sequence (E. coli) (UniProt P28307)
[3] = biological target: CsgE F79A (E. coli MC4100); experiment: native gel or EMSA; native PAGE of purified CsgE (monomer peak) incubated at 4°C or 25°C for various times
P0AE95 [4] = experiment: SEC-MALS; Superdex 200 Increase 10/300 GL, 0.3 ml/min; protein at 2 mg/ml in 50 mM KHPO4 pH 7.3 with and without 150 mM NaCl
[5] = biological target: T1, 6x-His-tagged CsgA lacking the 20-residue N-terminal signal sequence (E. coli, UniProt P28307 21-151); experiment: NMR titration; 1H-15N HSQC chemical shift perturbation at one ratio: 15N-labeled WT CsgE (80 µM, 0.4 M arginine) with or without unlabeled CsgA (80 µM); details: both partners purified
T1 construct: Freshly purified, unfolded monomer; also called unlabeled CsgA; monomeric CsgA

P0AE95 [6] = experiment: SEC; Superdex 200 10/300, 50 mM potassium phosphate, 150 mM NaCl, pH 7.4; purified CsgE (20 µM) incubated at 37°C; monomer to nonamer and larger oligomers
P0AE95 [7] = experiment: SEC; Superdex 200 10/300, 50 mM potassium phosphate, 150 mM NaCl, pH 7.4; purified CsgE (20 µM) incubated at 25°C for 5 h to 28 h; monomer to nonamer
[8] = biological target: T2, WT CsgE (6x-His-tagged, E. coli MC4100) (E. coli MC4100), P0AE95; experiment: native gel or EMSA; native PAGE of purified CsgE (monomer peak) incubated at 4°C or 25°C for various times; details: remark: other sources report otherwise
T2 chain: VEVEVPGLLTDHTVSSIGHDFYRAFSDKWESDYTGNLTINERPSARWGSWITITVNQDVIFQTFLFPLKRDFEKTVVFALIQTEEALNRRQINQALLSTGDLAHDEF

[9] = biological target: T2, WT CsgE (6x-His-tagged, E. coli MC4100) …; experiment: SEC-MALS; Superdex 200 Increase 10/300 GL, 0.3 ml/min; protein at 2 mg/ml in 50 mM KHPO4 pH 7.3 with and without 150 mM NaCl; details: remark: other sources report otherwise
[10] = biological target: T2, WT CsgE (6x-His-tagged, E. coli MC4100) …; experiment: SEC; Superdex 200 10/300, 50 mM potassium phosphate, 150 mM NaCl, pH 7.4; purified CsgE (20 µM) immediately after purification and kept at 4°C for up to 20 days; monomer to nonamer; details: remark: other sources report otherwise
[11] = biological target: T2, WT CsgE (6x-His-tagged, E. coli MC4100) …; experiment: SEC; Superdex 200 10/300, 50 mM potassium phosphate, 150 mM NaCl, pH 7.4; purified CsgE (20 µM) incubated at 37°C; monomer to nonamer and larger oligomers; details: remark: other sources report otherwise
[12] = biological target: T2, WT CsgE (6x-His-tagged, E. coli MC4100) …; experiment: SEC; Superdex 200 10/300, 50 mM potassium phosphate, 150 mM NaCl, pH 7.4; purified CsgE (20 µM) incubated at 25°C for 5 h to 28 h; monomer to nonamer; details: remark: other sources report otherwise

6x-His-tagged CsgA lacking the 20-residue N-terminal signal sequence (E. coli), sequence (P28307 21-151): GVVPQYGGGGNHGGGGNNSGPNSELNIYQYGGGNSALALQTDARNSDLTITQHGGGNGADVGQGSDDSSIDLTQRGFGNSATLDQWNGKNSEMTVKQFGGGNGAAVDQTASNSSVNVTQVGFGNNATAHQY
T1 sequence (P28307 21-151): as above

## CsgE W48A (natural protein)
[1]
  stoichiometry N: 9

## CsgE R47A (natural protein)
[2]
  Thioflavin T fluorescence of CsgA polymerization (25°C, 48 h): T50 of CsgA with CsgE R47A relative to WT CsgE (% decrease of T50 relative to WT CsgE): > 50

## CsgE F79A (natural protein)
[3]
  stoichiometry N: 9

B1: WT CsgE (6x-His-tagged, E. coli MC4100) (natural protein, UniProt P0AE95 23-129, looked up)
chain: VEVEVPGLLTDHTVSSIGHDFYRAFSDKWESDYTGNLTINERPSARWGSWITITVNQDVIFQTFLFPLKRDFEKTVVFALIQTEEALNRRQINQALLSTGDLAHDEF
notes: CsgE, periplasmic curli accessory protein of E. coli MC4100; add 21 for the precursor numbering of P0AE95; 15N-labeled (M9 minimal medium with [15N]ammonium sulfate) for NMR; Monomer peak of the S-100 column was used for SEC and native PAGE; also called wild-type CsgE; recombinant WT CsgE
P0AE95 [4]
  high-molecular-weight aggregate, percent of the loaded mass: a large, high-molecular-weight aggregate representing 32% of the loaded mass
[5]
  binding result: binds
P0AE95 [6]
  loss of monomer peak area within 1 h at 37°C: the monomeric peak loses >65% of its area within 1 h of incubation
P0AE95 [7]
  nonamer peak area as percent of monomer peak area, after 5 h at 25°C: the nonamer peak area was approximately 20% of the monomer peak area
  nonamer peak area as percent of monomer peak area, after 28 h at 25°C: the nonamer peak area was approximately 40% of the monomer peak area

B2: WT CsgE (6x-His-tagged, E. coli MC4100), P0AE95 23-129 (natural protein)
chain: VEVEVPGLLTDHTVSSIGHDFYRAFSDKWESDYTGNLTINERPSARWGSWITITVNQDVIFQTFLFPLKRDFEKTVVFALIQTEEALNRRQINQALLSTGDLAHDEF
[8]
  stoichiometry N: 9
[9]
  small oligomer, percent of the mass: 2%
[10]
  monomer, percent of peak area: > 90%
  stoichiometry N: 9
[11]
  stoichiometry N: 9
[12]
  stoichiometry N: 9

Source: PMC6050966, “Structure-Function Analysis of the Curli Accessory Protein CsgE Defines Surfaces Essential for Coordinating Amyloid Fiber Formation” (mBio, 2018)
